Test results published in the NTF2 design screens of Basanta et al. (2020).

assay: protease stability score; higher = more stable; yeast display proteolysis, trypsin and chymotrypsin;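 further: relative to predicted unfolded state with 0 unfolded-like and 1 meaning tenfold more protease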

Row | Sequence | protease stability score
1 | SDLDDMATKLIHEWIHAELTGDFKRIEELIDPHVRIVIEVNGRRIELIGREELRRWLEEWMEEMRHEIKLTHIEVQGEKTHVDTHLVIRAENHSYHHKTSRIFIIINGRMHSIHVHIR | 1.7
2 | TEEEKIFKKLMHLILNAFLTGDEELLHEYVDPHARVRVGDKEFHGRENIIHALRMLFHHLGIDHIEIDKVDVFNGRMEVHGTFHFDGKNVESILRFDVYNGRLKKEEIEWR | 0.726
3 | DEDEERIREVVERFLRDWETGDEKSLKHLLDPNVRMIIDGVDIVGREEALRLMKKLVDDLGIKHVHFHRVRLDVQGDKVRSEVDGEFEVGDKHTKVHTLLILRKVDGKWIFESVHMDHK | 2.27
4 | DEEEEETHEYMRLLVRLFLTGDEEVFDRLADPNRRLKWNGREYHGREQTNRVWRELGVKHRRIEDIKMQGDKVVIEGTVHIGDKTLRTTVSFVIIDGRTKSIEIRDI | 1.46
5 | DELHRDVTEAIKLILHAERTGNWRLMMDLMDPHVKLTIGDKEVHGMEAVFNELRTELEELGLDRFESHVRLRDFRIYDGRVDFHVELIFDFNGREIRHDTRFIVEKVDGRWFIKHIQYG | 2.13
6 | DEEEEELRELARISLELWITGDEDHLRHLMDPRTLLIVDGQEVHGREEAIKWVAFHLLKIKGLTLELKDFDVINGRLHLHVTRRVNGVRRRLRIHIEIIDGRIKTIRITID | 2.28
7 | TDEEELLHRILDEIEKALLTGDEDIIHRLFDPHVRFHVNGRHIVGRHEWSRWVNDHRKRFKNIQIRMRVEEKDVIDGRMHSRTKLHIIFNGVRYEITQEINIDVIDGRLKNVIVHDE | 0.725
8 | DERERLLLEWARKFMENLITGNEELLKEMHDPHYRSHIGDKDLVGREVHHEFWEKHFRHWRIEKFDVRDYHTQGDKARLVVRIVIDVDGRRIDTEIHIHYDIIDGQLRLVTLQYE | 1.5
9 | SEEEDFMRQVYHWFLELWLTGDEDIFKKLADPDTLLDWNGVQSVGMEEFHRLLHEMEERLGVKHKEYKRFRIQGNKVHLDLVHEFNGRRIKTEIVVVVVNGRFKEIRIRHH | 1.79
10 | TELEKDVVEVLHFLTHAHKTGDEDAINRLLDPHTRIDIDGQEFIGREDALRLWHELRTTHMRIDDRRIQGDKIQVDGQVNYLVNGREEERDVTIHMVKFDGVWVLREIKID | 2.07
11 | DEDEESATKFTRELIHHTRTGDEESLKELADPNVRIDFNGVEIHGMEWWLKLHVHLGAKIILRLKDIETIGDKVHIHGEREIRVNGKNIRTKIRILVEKVDGRWVLKHEELG | 1.21
12 | DHDEHDADRAVKWFLEDLRTGDEQLNERQADPHVRNDFNGVEIHGREEFLKHLSKLSNELGIKHLHVRHHRVYDGRLELHIELRFDGKTITLIIIKLKVNGRWYVESMHVH | 0.128
13 | SDEEHSLKRMWKELAHAMMTGDEHTVTELLDPHVRFEYGEFDLHGREDWLEFLREIRILIHHFEVRHINNFENHINTDGFTDIIIIIGDKDIRRRRKTQYFQVKVNGQWLFRSIHVR | 1.41
14 | DEEEERARRDLFIWAHAVKTGDEKRYKELFDPNDKLDINGQEIHGMESVVKLIRHIRIEDIHLHLHDIRLIGDKLHVDGQIRQHTHVGDKRVHDTINVNDIVHKVNGQWHWKSIIYH | 1.03
15 | SEEEVQFRRFFEAFLHFWETGDEKMLKTLLDPHVKFTVHFENHRSHYHGREEFTKFLHELGVKHFELDRVRIEFQGDKIRIEIDGVLLYDGRFHESHIILIIVKVDGRWVIHQLHIQIE | 2.15
16 | SEKQKLAEHFAKEFIHSLETGNEEFLEHLADPDTRLEVGDKEIHGMHHLSRWLHEHLHRYKNVRWSIEITSIEVQGDKIIIHGTLHLNIDGVEIRELIVIEIDVVNGRVKSEHRDKL | 1.38
17 | SEEDRDMEHVINVLRHLMVTGDEEELTKMADPTAYSDVNGVELHGREAFSRIVKLMGVKHVEIRDFTVQGDKVDVDGETRFENHHRFSIIHLRKINGRWYIERMRLE | 0.771
18 | SKEEEDTERITRLILEYLLTGDEDVFNHLADPNVRLVIDGRLVHGRERASRIMVESYEKFGADHREVRMHSVRDVDGRIHSDIKVHVHIGDKRQNLSHEVYSTKYDGRWIIKSVILT | 0.245
19 | SEEDEADHELVQWMLEILQTGDEETFRTFADPSTRHISHIDGKEMHIHGRESASEVLLTTWKELGVDVFHLHQYRYFNGRVDIEFELHQGNKTIELHFHYQIINGRLKRIEIRVHHE | 1.14
20 | DEKTEISEELLKIFVDLLQTGDEDIFQDMMDPRAQVHVNGKRIHGREHIIHWFREAHRHLGVKHTHIHRVEIQGEKVYIDGRLHYNGRDFNTHLIFDVINGRVKSMELRQH | 1.09
21 | SEEEKTSHHLLKLIKHDRETGNEKRMEEYIDPHVKLLINGREFHGWEDALHWIREAGIKHFELKHIDIIGEKLRIDGVINYNGQTHRITFHAIKVDGVWLNKEINHG | 0.121
22 | DEVDEDEKHALHLLEHSIKTGDERMITEMMDPRYRLIINGQEFHGRELWIELWQRIKNIRINDVKFEELRVVGNKLRVRVHLDVQIGDKRYILDTEIVAVKVNGRWLNEEIIIR | 1.39
23 | DEEKDIMNEWWKRIFNVFHTGDEREHDKMLDPNARFDIGDKTLHGMDDFRRFLHRADHISHFTEHHVEVQGEKLVWEGTYDGEFNGVERRFHTHEQNIIINGKVKRVFFQIR | 0.834
24 | DEMKEWIRELIERWTHAFLTGDEDELKRLVDPHAKLDINGRDVIGREDFVEHLRRLFEELGVKHVSSRMRDIKIVNGRAHVDSEFRLRVGEKQESHRMHIISDKYNGRWVIQSIHVE | 1.93
25 | SDEEHELREATEILLHLFLTGDEESLDNLADPNVRVDYNGVKYHGREVLSFWLHEELKHARIHIRIRSLHLVGEFLHIQGEVRIEQGEFRRRHDMHWIIEKVDGRWIIRYVLIK | 1.56

Row | Sequence | protease stability score
26 | SEEEDLVQKAFEIFVHDIRTGDEDSLIENADPNVRLLINGVIFHGREEFKFIMRHWRIRRIELHDYRIQGDKAHVESRMDIEFNGRIRITHVELVILKVNGQWLIHTIKVI | 0.454
27 | DERREQTRHWINMFTHAMRTGDEHTFKELLDPHVRVKDEHEEDHGRDKAVELFSRVDVFHDIKLRDIDVQGNYVTIEVELLGEIDGKRTTHDLHIITYKINGRWILKSVSIR | 1.06
28 | DESTEVLERIMKDFLDELRTGDWEKFMELADPNVRLHFNGVTNHGREEVTRYFREHLARFDHYEIENHRVTLVGDKLHLDVILRVHQGDKFREYKVEIRVVVYDGKIKEVHIIIR | 2.44
29 | DKEDEEAKRLLEIFITHHLTGDEEHYQTLMDPHARLDFDGRHNVGREKITEFLRRFGADHVHIKHIEVELYNGKLYVRIEVELRIGDKTMDMIWVLQLRKVDGRWHIRRETWILL | 0.703
30 | SEEEEIIESFMKELRESHKTGDPTAIDRLADPNTRLLVNGKQHHGWEHILRFLEDLGANHIELEFRDSHLIGDKMHIHGQLVMHINGQRVTIKTHMILSKINGRWYLEHIELR | 1.81
31 | SEEKKWEDDFMEDFLRAFHTGDFHRLLELLDPHVRIEINFENRKIDLIGREEFEKWMRRVKNARFHVEHWHSINGVNFSDTVLRYGDKEQKTELIFHVYNGKVKHIDVEFH | 2.26
32 | DEDEKDTHIWIKILEHIWDTGDEESFERLADPNVRFIQGEKELHGRERLIRFLSKYKNLTFRSEDYHIVNGRALVRITNHVNGRDLEMIIYYEKVNGQWHNKEIELR | 1.27
33 | KEHNDALELMYHWLIHLWKTGDERDIYELFDPNVRVDVNGRELHGMELVSHIELREMKRLGFKVIHIELTSVRYIGDKIEIDTIFHLHVGEYTERREHHILSYKVDGRWFVKESEVN | 1.18
34 | EEKEEIDRREMKRFMKAFETGDEHELKELFDPHARVHVGDKVHIGRHNFLRWFKEWIEKYKNVRIELDDVEYQGEKLHLDLTVEINGRRTTQDLVIYKIDGRWLFKNIHVH | 0.607
35 | SEDREQVHRFFEQFSRDTLTGNEERNFEMADPHTRFDIDGRIIIGRDIILHHWKEEMRKHGAEMKIHIHHVRVQGDKATVDLRVEIHINGRTYEYKVVMIVEKIDGRWVLTQIKYE | 0.365
36 | NEHEETIEILFRDIVHVLRTGDWKLFSDLMDPHARYVIGDKTFHGRESWVREFDRLLEQIKGVRFDVRHVNVVGDKVHAFTDWEFNGVMFDTRLDLHIVDGRIKEMRLEIR | 1.12
37 | SEEEKRAEEWVKLMIHAHLTGDFHLLERFADPHTRVDFNGVENIGMEEVSRWIKEWRRRIDHTEIRLHRIRLQGDKVHVKTELILEYDGRTEFIDSRINLIVINGVLKELRVTLH | 1.38
38 | SEEEEYFRFVAEEFLKAWSTGNEEILERLFDPRVRLSFNGKQFHGRERVHDKLMQLLEHLGINHTRIDDREFRIIGDKAEIRIDLILHVGDKTLRVEVILIITKVNGVWMMKEVELRIH | 1.51
39 | DEEDEHALRMARLWWKALTTGDEELLHKLMDPDVRVEINGVEIHGRETYERFLHKLRRDLGVKHIEIQFHHIELYGEKIIIEGTIFIRQGDKEHKERSIIILVVVDGRIKSSKIILL | 2.19
40 | EEERKEVKFAFDIWSELFLTGDEEDIHHLADPDVRLDINGKNIHGMELIHKIILHDILEWRLEVRVKHIEVQGDKAEIQMELKFRYNGREKHYKFRIIYKKFDGQWRYESIHMR | 1.71
41 | DDEEHEARLAVHELREVQRTGDERQLHELIDPDTRFEFPGVTLHGRENMVEWLARIKNLRVESIHERHISIYNGQVDFDMEMHVRDGNKHRTEKWRIIMYKFDGRWSIKSFESR | 0.961
42 | THEWREAREMIEVFLERIETGDEESLERLLDPHVRVHINGKDFHGRDEAIRKLIEMRHHSIHLKHINVQGDKVHNFGEWIVDFDGKKHTHKMILYISKVNGRWLIDSIHVE | 0.98
43 | DDNEETVERTFKYFIDSLRTGNEEDMYEMADPNVKIEIGDKRLHGREKFRDHMHELSRRADHIQVHLRIHDIQGEFLHLDVELILDVNGKELRIKVHFVAFKFNGRWRLRSMRQT | 1.04
44 | DKEEELMKTFSQLFEHWVETGDETEMLQNADPHAKSRFNGREIHGREDIVELLKRIIDQADHHEVHTDKVKVVGDKIHINSSFHIHIGEFTIRLHYELIVDKINGRWILKEVRLG | 0.927
45 | SDEEKHAEEYHRQLTRDIMTGDEHILHELVDPHVLERVDGKDNHGWEEIAHFWVRFKNMRMHIEIHEIRHIGDFVDSDIKIRVVYNGKDITMRVHFHVEKINGRWLTTHIRIK | 0.352
46 | SEEDEEFKHHIKLLIESLETGDWRTDRRLADPHVRLEVGDKTIHGMDEYLEFMSEIRFTRLEISSVEIQGDKLHANGETDGIVNGKRVKVESTFIIIKVDGRWIIEHERMH | -0.372
47 | DEEEHNSQYAEELHIHLQETGDFEEFKKNVDPHVRLHSEINGKELRLHGRKIAEWLIEFWIKRIPNATIELHDSSIYNGKMHLDQRIKIGDKSMIVIVILEKVNGVWRVREMHITVR | 1.37
48 | DHHRKETEELAELFFENLLTGNWEIHEHLLDPDVKLEQGDKINVGRESYSEWLEYVKKHIRIRDWKIRHVHVFNGRVHLETEVHMEYGDKHHVVDMHISIDVINGRFKTVRIEIK | 2.1
49 | HEDDHAVRKTIEDLLRSITTGDFELYSKLADPNTRFNIDGVNDVGMEIWVEKAIQHGWKVRHFHIRDVEVQGDKIDVDLKIDEDVNGRRIDIHVLLIIRKIDGRWILESVEHV | 1.64
50 | SEEEEIYKRAHKFFADVFLTGNEKELEHMLDPNVRLHVNGQDHHGWTDVFRIFNFLGADHYDVKHLDIQGDKVDLHSEVDINGRTRRIIFHSLKVNGQWKITHVQVD | 1.24
